Measured values reported in patent publication US20240368283A1 (published 2024).

Columns and labels:
huR2a = huR2a (human, UniProt P12318 36-218); experiment: SPR, antibody captured on protein A/G chip, receptor injected as analyte
Description: (§1) Example 21: Anti-FcγRIIβ antibodies were captured on protein A/G chips at 10 ug/mL, 1 ug/mL and 0.1 ug/mL concentrations (in duplicates). Each analyte binder was injected at 7 concentrations with 5-fold serial dilutions, with the starting concentration for FcγRs at 5 uM, and for PD-1 at 0.5 uM. […] Kinetics data was subsequently collected.

CyR2b = target: T1, CyR2b (monkey); experiment: as above
T1 construct: also called monkey FcγRIIβ; Cy FcγRIIβ
Description: as §1

CyR2a = target: T2, CyR2a (monkey); experiment: as above
T2 construct: also called monkey FcγRIIα; Cy FcγRIIα
Description: as §1

huFcγRIIβ [1] = target: T3, huFcγRIIβ (human, UniProt P31994 46-217); experiment: as above
T3 construct: also called huR2b; human FcγRIIβ (soluble antigen)
T3 sequence (looked up): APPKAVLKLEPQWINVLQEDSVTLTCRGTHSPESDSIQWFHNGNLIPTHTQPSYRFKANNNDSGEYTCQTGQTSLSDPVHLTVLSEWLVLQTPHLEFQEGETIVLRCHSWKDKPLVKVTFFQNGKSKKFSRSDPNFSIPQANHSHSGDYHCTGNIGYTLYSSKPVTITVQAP
Description: as §1

FcRN = target: T4, FcRN; experiment: BLI (AHC biosensors by Example 20); table headed FcRN Binding
T4 construct: also called neonatal Fc receptor

huFcγRIIα (R131) = target: T5, huFcγRIIα (R131) (human, UniProt P12318 36-218); experiment: BLI, antibody captured on AHC biosensors, receptor in solution
T5 construct: R131 allotype; also called human FcγRIIα R131 (soluble antigen)
T5 sequence (looked up): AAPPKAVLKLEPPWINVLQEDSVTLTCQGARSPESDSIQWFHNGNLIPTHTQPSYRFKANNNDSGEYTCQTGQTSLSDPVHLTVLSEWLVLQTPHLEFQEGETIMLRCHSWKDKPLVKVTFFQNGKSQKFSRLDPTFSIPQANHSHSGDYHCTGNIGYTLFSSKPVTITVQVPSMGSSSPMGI
Description: (§2) Example 19: Anti-FcγRIIβ antibodies were captured on AHC biosensors at a concentration of 5 μg/mL. Antigens (FcγRIIα/FcγRIIβ) were serially diluted two-fold with a starting concentration of 5u M. The biosensors with immobilized antibodies were dipped into the different antigen concentrations and kinetics data were collected.

huFcγRIIβ [2] = target: T3, huFcγRIIβ; experiment: as above
Description: as §2

huFcγRIIβ [3] = target: T3, huFcγRIIβ; experiment: BLI; ratio of the KD for huFcγRIIα (R131) to the KD for huFcγRIIβ
Description: as §2

human FcγRIIβ [4] = target: T6, human FcγRIIβ (human, UniProt P31994 46-217, limits assumed); experiment: SPR, antibody captured on ProA/G HC30M chip, recombinant human FcγRIIβ injected (4 nM-5 uM); average steady state KD
T6 construct: also called FcγRIIb; R2b
T6 sequence (looked up): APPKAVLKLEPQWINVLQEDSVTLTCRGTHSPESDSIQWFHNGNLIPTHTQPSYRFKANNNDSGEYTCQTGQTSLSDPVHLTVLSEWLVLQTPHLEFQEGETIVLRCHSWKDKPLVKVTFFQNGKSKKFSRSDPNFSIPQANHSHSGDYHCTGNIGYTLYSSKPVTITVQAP
Description: (§3) Example 52: The binding of anti-FcγRIIβ antibodies to human FcγRIIβ was evaluated. Antibodies were captured on ProA/G HC30M chip at 5 ug/mL, 1 ug/mL, and 0.2 ug/mL for 15 minutes. Six buffer injections were made over the chip followed by injections of increasing concentrations of recombinant human FcγRIIβ (4 nm-5 uM). The association was measured during each injection for 5 minutes and the dissociation was measured for 10 minutes post injection with buffer flow (1×HBSTE+ BSA).

human FcγRIIβ [5] = target: T6, human FcγRIIβ; experiment: SPR, antibody captured on ProA/G HC30M chip, recombinant human FcγRIIβ injected (4 nM-5 uM); average kinetic KD
Description: as §3

human FcγRI = human FcγRI (human, UniProt P12314 16-288, limits assumed); experiment: BLI, antibody captured on AHC biosensors, receptor in two-fold dilutions
Description: as §2, with “20:” for “19:”, “(FcγRI or FcγRIIIα)” for “(FcγRIIα/FcγRIIβ)”, “5 μM.” for “5u M.”

human FcγRIIIα = human FcγRIIIα (human, UniProt P08637 17-208, limits assumed); experiment: as above
Description: as §2, with “20:” for “19:”, “(FcγRI or FcγRIIIα)” for “(FcγRIIα/FcγRIIβ)”, “5 μM.” for “5u M.”

T4 sequence (P55899 24-297, chain 1 of 2): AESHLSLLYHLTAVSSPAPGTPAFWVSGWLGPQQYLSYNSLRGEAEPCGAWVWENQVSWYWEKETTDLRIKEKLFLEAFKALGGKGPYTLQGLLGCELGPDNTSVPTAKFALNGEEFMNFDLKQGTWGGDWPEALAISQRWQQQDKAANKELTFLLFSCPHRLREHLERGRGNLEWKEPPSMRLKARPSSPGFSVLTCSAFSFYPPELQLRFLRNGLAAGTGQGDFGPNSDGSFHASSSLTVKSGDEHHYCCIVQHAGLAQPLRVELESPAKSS
T4 sequence (P61769 21-119, chain 2 of 2, further chain): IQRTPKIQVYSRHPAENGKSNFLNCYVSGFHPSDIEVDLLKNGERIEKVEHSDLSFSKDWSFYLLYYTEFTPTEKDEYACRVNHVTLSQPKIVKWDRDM
human FcγRI, sequence (P12314 16-288 limits assumed): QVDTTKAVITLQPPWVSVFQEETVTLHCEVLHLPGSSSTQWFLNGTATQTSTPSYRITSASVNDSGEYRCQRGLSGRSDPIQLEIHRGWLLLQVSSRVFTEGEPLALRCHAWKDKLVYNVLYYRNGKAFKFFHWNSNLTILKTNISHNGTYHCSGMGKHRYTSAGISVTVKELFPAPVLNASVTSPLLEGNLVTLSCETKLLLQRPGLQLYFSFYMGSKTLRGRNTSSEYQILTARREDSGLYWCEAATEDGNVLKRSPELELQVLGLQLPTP
human FcγRIIIα, sequence (P08637 17-208 limits assumed): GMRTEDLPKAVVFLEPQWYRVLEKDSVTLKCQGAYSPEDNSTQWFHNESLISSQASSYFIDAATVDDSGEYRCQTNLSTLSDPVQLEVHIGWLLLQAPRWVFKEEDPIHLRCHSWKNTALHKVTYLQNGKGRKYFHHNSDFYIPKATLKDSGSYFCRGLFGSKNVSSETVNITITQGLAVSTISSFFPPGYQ

Binder | Kd (huR2a) | Kd (CyR2b) | Kd (CyR2a) | Kd (huFcγRIIβ [1]) | Kd (FcRN) | koff (FcRN) | kon (FcRN) | Kd (huFcγRIIα (R131)) | Kd (huFcγRIIβ [2]) | Fold selectivity (huFcγRIIβ [3]) | binding result (human FcγRI) | binding result (human FcγRIIIα) | also measured
TA30 (bispecific antibody, human IgG1, kappa) heavy: not shown light: DIQMTQSPSSLSASVGDRVTITCQASQSPNNLLAWYQQKPGKAPKLLIYGASDLPSGVPSRFSGSGSGTDFTLTISSLQPEDFATYYCQNNYYVGPVSYAFGGGTKVEIKRTVAAPSVFIFPPSDEQLKSGTASVVCLLNNFYPREAKVQWKVDNALQSGNSQESVTEQDSKDSTYSLSSTLTLSKADYEKHKVYACEVTHQGLSSPVTKSFNRGEC | 633 nM | 1210 nM | 1120 nM | 56.1 nM | – | – | – | – | – | – | – | – | –
TA36 (bispecific antibody, human IgG1, kappa) heavy: not shown light: DIQMTQSPSSLSASVGDRVTITCQASQSPNNLLAWYQQKPGKAPKLLIYGASDLPSGVPSRFSGSGSGTDFTLTISSLQPEDFATYYCQNNYYVGPVSYAFGGGTKVEIKRTVAAPSVFIFPPSDEQLKSGTASVVCLLNNFYPREAKVQWKVDNALQSGNSQESVTEQDSKDSTYSLSSTLTLSKADYEKHKVYACEVTHQGLSSPVTKSFNRGEC [TA36, listing 1 of 2 here] | 4060 nM | 3660 nM | 2300 nM | 299 nM | 289 nM | 0.118 s⁻¹ | 407000 M⁻¹ s⁻¹ | 141 nM | 45 nM | 3 fold | – | – | –
ARB40 (antibody, human IgG1, kappa, copies: 2 + 2) heavy: not shown light: DIVMTQSPLSLPVTPGEPASISCRSSRSLVHGSGDNYLHWYLQKPGQSPQLLIYMASNRAPGVPDRFSGSGSGTDFTLKISRVEAEDVGVYYCMQALRAPFSFGGGTKVEIKRTVAAPSVFIFPPSDEQLKSGTASVVCLLNNFYPREAKVQWKVDNALQSGNSQESVTEQDSKDSTYSLSSTLTLSKADYEKHKVYACEVTHQGLSSPVTKSFNRGEC | – | – | – | – | – | – | – | – | – | – | – | – | Kd (human FcγRIIβ [4]): 120 nM; Kd (human FcγRIIβ [5]): 120 nM
TA25 (bispecific antibody, human IgG1, kappa) heavy: not shown light: DIQMTQSPSSLSASVGDRVTITCQASQSPNNLLAWYQQKPGKAPKLLIYGASDLPSGVPSRFSGSGSGTDFTLTISSLQPEDFATYYCQNNYYVGPVSYAFGGGTKVEIKRTVAAPSVFIFPPSDEQLKSGTASVVCLLNNFYPREAKVQWKVDNALQSGNSQESVTEQDSKDSTYSLSSTLTLSKADYEKHKVYACEVTHQGLSSPVTKSFNRGEC [TA25, listing 1 of 2 here] | 6080 nM | 1500 nM | 777 nM | 253 nM | 231 nM | 0.0788 s⁻¹ | 341000 M⁻¹ s⁻¹ | 114000 nM | 122 nM | 934 fold | – | – | –
TA26 (bispecific antibody, human IgG1, kappa) heavy: not shown light: DIQMTQSPSSLSASVGDRVTITCQASQSPNNLLAWYQQKPGKAPKLLIYGASDLPSGVPSRFSGSGSGTDFTLTISSLQPEDFATYYCQNNYYVGPVSYAFGGGTKVEIKRTVAAPSVFIFPPSDEQLKSGTASVVCLLNNFYPREAKVQWKVDNALQSGNSQESVTEQDSKDSTYSLSSTLTLSKADYEKHKVYACEVTHQGLSSPVTKSFNRGEC [TA26, listing 1 of 2 here] | 6510 nM | 3130 nM | 2480 nM | 154 nM | 236 nM | 0.0951 s⁻¹ | 403000 M⁻¹ s⁻¹ | 715 nM | 50.2 nM | 14 fold | – | – | –
TA28 (bispecific antibody, human IgG1, kappa) heavy: not shown light: DIQMTQSPSSLSASVGDRVTITCQASQSPNNLLAWYQQKPGKAPKLLIYGASDLPSGVPSRFSGSGSGTDFTLTISSLQPEDFATYYCQNNYYVGPVSYAFGGGTKVEIKRTVAAPSVFIFPPSDEQLKSGTASVVCLLNNFYPREAKVQWKVDNALQSGNSQESVTEQDSKDSTYSLSSTLTLSKADYEKHKVYACEVTHQGLSSPVTKSFNRGEC [TA28, listing 1 of 2 here] | – | – | – | – | 273 nM | 0.103 s⁻¹ | 378000 M⁻¹ s⁻¹ | 623 nM | 11 nM | 56 fold | – | – | –
TA39 (bispecific antibody, human IgG1, kappa) heavy: not shown light: DIQMTQSPSSLSASVGDRVTITCQASQSPNNLLAWYQQKPGKAPKLLIYGASDLPSGVPSRFSGSGSGTDFTLTISSLQPEDFATYYCQNNYYVGPVSYAFGGGTKVEIKRTVAAPSVFIFPPSDEQLKSGTASVVCLLNNFYPREAKVQWKVDNALQSGNSQESVTEQDSKDSTYSLSSTLTLSKADYEKHKVYACEVTHQGLSSPVTKSFNRGEC [TA39, listing 1 of 2 here] | – | – | – | – | 250 nM | 0.1 s⁻¹ | 400000 M⁻¹ s⁻¹ | 115 nM | 30.3 nM | 4 fold | – | – | –
TA25 (bispecific antibody, human IgG1, kappa) heavy: not shown light: DIQMTQSPSSLSASVGDRVTITCQASQSPNNLLAWYQQKPGKAPKLLIYGASDLPSGVPSRFSGSGSGTDFTLTISSLQPEDFATYYCQNNYYVGPVSYAFGGGTKVEIKRTVAAPSVFIFPPSDEQLKSGTASVVCLLNNFYPREAKVQWKVDNALQSGNSQESVTEQDSKDSTYSLSSTLTLSKADYEKHKVYACEVTHQGLSSPVTKSFNRGEC [TA25, listing 2 of 2 here] | – | – | – | – | – | – | – | – | – | – | no binding (tested: 5 µM starting concentration) | no binding (tested: 5 µM starting concentration) | –
TA39 (bispecific antibody, human IgG1, kappa) heavy: not shown light: DIQMTQSPSSLSASVGDRVTITCQASQSPNNLLAWYQQKPGKAPKLLIYGASDLPSGVPSRFSGSGSGTDFTLTISSLQPEDFATYYCQNNYYVGPVSYAFGGGTKVEIKRTVAAPSVFIFPPSDEQLKSGTASVVCLLNNFYPREAKVQWKVDNALQSGNSQESVTEQDSKDSTYSLSSTLTLSKADYEKHKVYACEVTHQGLSSPVTKSFNRGEC [TA39, listing 2 of 2 here] | – | – | – | – | – | – | – | – | – | – | no binding (tested: 5 µM starting concentration) | no binding (tested: 5 µM starting concentration) | –
TA26 (bispecific antibody, human IgG1, kappa) heavy: not shown light: DIQMTQSPSSLSASVGDRVTITCQASQSPNNLLAWYQQKPGKAPKLLIYGASDLPSGVPSRFSGSGSGTDFTLTISSLQPEDFATYYCQNNYYVGPVSYAFGGGTKVEIKRTVAAPSVFIFPPSDEQLKSGTASVVCLLNNFYPREAKVQWKVDNALQSGNSQESVTEQDSKDSTYSLSSTLTLSKADYEKHKVYACEVTHQGLSSPVTKSFNRGEC [TA26, listing 2 of 2 here] | – | – | – | – | – | – | – | – | – | – | no binding (tested: 5 µM starting concentration) | no binding (tested: 5 µM starting concentration) | –
TA28 (bispecific antibody, human IgG1, kappa) heavy: not shown light: DIQMTQSPSSLSASVGDRVTITCQASQSPNNLLAWYQQKPGKAPKLLIYGASDLPSGVPSRFSGSGSGTDFTLTISSLQPEDFATYYCQNNYYVGPVSYAFGGGTKVEIKRTVAAPSVFIFPPSDEQLKSGTASVVCLLNNFYPREAKVQWKVDNALQSGNSQESVTEQDSKDSTYSLSSTLTLSKADYEKHKVYACEVTHQGLSSPVTKSFNRGEC [TA28, listing 2 of 2 here] | – | – | – | – | – | – | – | – | – | – | no binding (tested: 5 µM starting concentration) | no binding (tested: 5 µM starting concentration) | –
TA36 (bispecific antibody, human IgG1, kappa) heavy: not shown light: DIQMTQSPSSLSASVGDRVTITCQASQSPNNLLAWYQQKPGKAPKLLIYGASDLPSGVPSRFSGSGSGTDFTLTISSLQPEDFATYYCQNNYYVGPVSYAFGGGTKVEIKRTVAAPSVFIFPPSDEQLKSGTASVVCLLNNFYPREAKVQWKVDNALQSGNSQESVTEQDSKDSTYSLSSTLTLSKADYEKHKVYACEVTHQGLSSPVTKSFNRGEC [TA36, listing 2 of 2 here] | – | – | – | – | – | – | – | – | – | – | no binding (tested: 5 µM starting concentration) | no binding (tested: 5 µM starting concentration) | –
